Among the data in paper PMC5979038 are percent of protein in higher-order species and mean residence time of single subunits within the filaments on the membrane values, retold here.

Experiment [1] has as its target FtsZ-YFP-mts (E. coli). The experiment can be described thus: AUC; sedimentation velocity, 7 μM protein, working buffer, 4 mM GTP and 5 mM Mg2+; monomers to higher-order species.
Experiment [2] has as its target FtsZ-YFP-mts (E. coli). The experiment in a line: single-molecule TIRF residence time; subunits labelled with GFP-Booster Atto647N in filaments on the bilayer, about 0.2 μM protein, 4 mM GTP, 1 mM free Mg2+ (dynamic rings); double exponential fit with photobleaching term.
The target of experiment [3] is FtsZ-YFP-mts (E. coli). The experiment can be described thus: single-molecule TIRF residence time; subunits labelled with GFP-Booster Atto647N in filaments on the bilayer, about 0.2 μM protein, with GTP, 5 mM free Mg2+ (high-density mesh).

Turning to FtsZ-YFP-mts, the percent of protein in higher-order species in experiment [1] is 70%. Also, the mean residence time of single subunits within the filaments on the membrane is 11.5 s in experiment [2] and 15.1 s in experiment [3].
